Test results: article PMC10068899 (Cell Reports, 2023)
Each block holds one binder with its values, some of them ahead of it.

Key:
[1] = molecular target: human p110γ (catalytic subunit of PI3Kγ), co-expressed with mouse p84 or porcine p101 (human, UniProt P48736 1-1102); test: SEC
[2] = molecular target: porcine p110γ (for X-ray crystallography) (porcine, UniProt O02697 1-1102); test: crystal structure
[3] = molecular target: human p110γ, biGBac construct co-expressed with human p84 or human p101 (human, UniProt P48736 1-1102); test: HDX-MS
Chain of human p110γ, biGBac construct co-expressed with human p84 or human p101 (P48736 whole entry): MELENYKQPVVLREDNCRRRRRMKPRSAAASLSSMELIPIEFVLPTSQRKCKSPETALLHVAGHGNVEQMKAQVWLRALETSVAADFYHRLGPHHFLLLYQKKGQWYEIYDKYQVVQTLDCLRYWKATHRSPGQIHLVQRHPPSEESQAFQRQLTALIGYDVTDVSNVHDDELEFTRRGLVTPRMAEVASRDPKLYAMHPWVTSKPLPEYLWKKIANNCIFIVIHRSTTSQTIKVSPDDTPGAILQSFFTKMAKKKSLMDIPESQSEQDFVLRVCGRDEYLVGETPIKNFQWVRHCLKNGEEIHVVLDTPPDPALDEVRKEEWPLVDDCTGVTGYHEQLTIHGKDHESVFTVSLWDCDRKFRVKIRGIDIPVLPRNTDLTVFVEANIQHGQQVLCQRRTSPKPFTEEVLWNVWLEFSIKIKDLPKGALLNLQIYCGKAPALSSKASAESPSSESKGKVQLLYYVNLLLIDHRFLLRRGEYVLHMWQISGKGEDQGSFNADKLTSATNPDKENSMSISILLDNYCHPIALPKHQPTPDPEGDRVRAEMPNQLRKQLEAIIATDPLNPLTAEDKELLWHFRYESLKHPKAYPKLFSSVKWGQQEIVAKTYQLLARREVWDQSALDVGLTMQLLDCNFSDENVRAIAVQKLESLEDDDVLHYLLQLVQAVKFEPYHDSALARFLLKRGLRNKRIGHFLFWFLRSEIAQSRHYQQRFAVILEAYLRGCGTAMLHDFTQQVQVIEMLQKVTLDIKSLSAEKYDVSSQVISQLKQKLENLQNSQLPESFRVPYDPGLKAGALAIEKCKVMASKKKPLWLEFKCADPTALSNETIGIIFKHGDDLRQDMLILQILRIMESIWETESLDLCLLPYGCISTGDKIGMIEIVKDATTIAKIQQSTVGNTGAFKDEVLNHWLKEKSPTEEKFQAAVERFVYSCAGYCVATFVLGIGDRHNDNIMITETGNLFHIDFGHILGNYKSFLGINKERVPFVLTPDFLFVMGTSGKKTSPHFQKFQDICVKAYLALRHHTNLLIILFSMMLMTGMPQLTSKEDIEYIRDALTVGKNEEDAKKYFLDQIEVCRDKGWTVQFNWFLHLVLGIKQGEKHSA

Chain of human p110γ (catalytic subunit of PI3Kγ), co-expressed with mouse p84 or porcine p101 (P48736 whole entry): as above
Chain of porcine p110γ (for X-ray crystallography) (O02697 whole entry): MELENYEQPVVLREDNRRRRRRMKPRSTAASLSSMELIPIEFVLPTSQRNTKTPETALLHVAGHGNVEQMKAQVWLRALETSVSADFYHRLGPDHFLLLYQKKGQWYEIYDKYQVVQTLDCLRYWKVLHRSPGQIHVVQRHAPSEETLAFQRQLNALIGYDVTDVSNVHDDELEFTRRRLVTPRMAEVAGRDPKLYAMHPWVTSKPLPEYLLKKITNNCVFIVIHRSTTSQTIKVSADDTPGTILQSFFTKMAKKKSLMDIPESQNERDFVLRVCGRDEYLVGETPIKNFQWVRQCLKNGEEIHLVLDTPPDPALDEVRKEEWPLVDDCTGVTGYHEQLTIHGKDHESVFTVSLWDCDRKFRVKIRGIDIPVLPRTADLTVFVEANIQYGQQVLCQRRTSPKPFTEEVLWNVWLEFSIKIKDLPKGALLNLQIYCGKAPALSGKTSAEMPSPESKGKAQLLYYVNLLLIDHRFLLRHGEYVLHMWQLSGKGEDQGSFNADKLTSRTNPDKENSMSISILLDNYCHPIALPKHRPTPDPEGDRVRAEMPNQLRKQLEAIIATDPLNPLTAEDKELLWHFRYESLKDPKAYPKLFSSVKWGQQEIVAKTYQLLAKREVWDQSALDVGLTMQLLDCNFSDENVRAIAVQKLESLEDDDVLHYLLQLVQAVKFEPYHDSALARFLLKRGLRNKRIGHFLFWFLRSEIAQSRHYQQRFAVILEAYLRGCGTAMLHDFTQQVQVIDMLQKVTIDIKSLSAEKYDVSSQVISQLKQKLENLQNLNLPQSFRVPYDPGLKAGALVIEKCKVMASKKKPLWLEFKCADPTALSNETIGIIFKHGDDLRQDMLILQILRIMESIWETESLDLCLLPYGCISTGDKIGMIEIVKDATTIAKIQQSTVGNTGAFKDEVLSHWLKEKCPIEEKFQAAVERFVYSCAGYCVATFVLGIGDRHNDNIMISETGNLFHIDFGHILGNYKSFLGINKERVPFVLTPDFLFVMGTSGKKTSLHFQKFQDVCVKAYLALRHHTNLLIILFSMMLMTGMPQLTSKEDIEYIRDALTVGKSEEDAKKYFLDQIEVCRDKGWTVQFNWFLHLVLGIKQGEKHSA

B1: porcine p101 (regulatory subunit of PI3Kγ), co-expressed with human p110γ (natural protein)
chain: MQPGATTCTEDRIQHALERCLHGLSLSRRSTSWSAGLCLNCWSLQELVSRDPGHFLILLEQILQKTREVQEKGTYDLLAPLALLFYSTVLCTPHFPPDSDLLLKAARTYHRFLTWPVPYCSICQELLTFIDAELKAPGISYQRLVRAEQGLSTRSHRSSTVTVLLLNPVEVQAEFLDVADKLSTPGPSPHSAYITLLLHAFQATFGAHCDLSGLHRRLQSKTLAELEAIFTETAEAQELASGIGDAAEARQWLRTKLQAVGEKAGFPGVLDTAKPGKLRTIPIPVARCYTYSWNQDSFDILQEILLKEQELLQPEILDDEEDEDEEDEEEDLDADGHCAERDSVLSTGSAASHASTLSLASSQASGPTLSRQLLTSFVSGLSDGVDSGYMEDIEESAYERPRRPGGHERRGHRRPGQKFNRIYKLFKSTSQMVLRRDSRSLEGSPDSGPPLRRAGSLCSPLDSPTLPPSRAQGSRSLPQPKLSPQLPGWLLAPASRHQRRRPFLSGDEDPKASTLRVVVFGSDRISGKVVRAYSNLRRLENNRPLLTRFFKLQFFYVPVKRSRGTGTPTSPAPRSQTPPLPTDAPRHPGPAELGAAPWEESTNDISHYLGMLDPWYERNVLGLMHLPPEVLCQSLKAEPRPLEGSPAQLPILADMLLYYCRFAARPVLLQVYQTELTFITGEKTTEIFIHSLELGHSAATRAIKASGPGSKRLGIDGDREAVPLTLQIIYSKGAISGRSRWSNMEKLCTSVNLSKACRQQEELDSSTEALTLNLTEVVKRQTPKSKKGFNQISTSQIKVDKVQIIGSNSCPFAVCLDQDERKILQSVIRCEVSPCYKPEKSSLCPPPQRPSYPPAPATPDLCSLLCLPIMTFSGALP
- binding result [1]: binds

B2: mouse p84 (regulatory subunit of PI3Kγ), co-expressed with human p110γ (natural protein)
chain: MESSDVELDFQRSVQAVLRELNTPNPALQSNQGMWRWSLHKKVERNPGKSSILVRILLRELEKAESEDGRRVIIPLLLTLMSVLTKATGIPEDLYHRAYTFCTRLLTLPAPYSTVALDCAIRLKTETAVPGTLYQRTVIAEQNLISELYPYQERVFLFVDPELVSASVCSALLLEIQAAQEQQTPEACMRHVVSHALQAALGEACHTGALNRKLQASSRRVLEYYFHAVVAAIEQVASEDSPSRLGHLEKMEEIYCSLLGPATTRRHCVGDLLQDRLPSIPLPSPYITFHLWTDQEQLWKELVLFLRPRSQLRLSADLDALDLQGFRLDRDLARVSTDSGIERDLPLGSDELPDPSSSEMERAALQRKGGIKKRVWPPDFFMPGSWDGPPGLHRRTGRPSGDGELLPGVSRVHTARVLVLGDDRMLGRLAQAYYRLRKRETKKFCLTPRLSLQLYYIPVLAPQVTGQDPEASRKPELGELASFLGRVDPWYESTVNTLCPAILKLAEMPPYLDTSRTVDPFILDVITYYVRMGTQPIYFQLYKVKIFTSLSHDPTEDIFLTELKVKIQDSKSPKEGSSPRRRGAAEGTGAELSMCYQKALLSHRPREVTVSLRATGLVLKAIPAGDTEVSGFFHCTSPNAASATDCSCLHVSVTEVVKSSNLAGRSFTTSTNTFRTSSIQVQSQDQRLLTLWLDKDGRRTFRDVVRFEVSPCPEPCSRTQKSKTSALNSHGQETEKNMAKPNSLLMPINTFSGIIQ
- binding result [1]: binds

Continued, values first:

- binding result [2]: binds
B3: EE-tagged mouse p84 (for X-ray crystallography) (natural protein)
chain: B2 chain

- binding result [3]: binds
B4: human p101 (regulatory subunit of PI3Kγ), co-expressed with human p110γ (natural protein)
chain: MQPGATTCTEDRIQHALERCLHGLSLSRRSTSWSAGLCLNCWSLQELVSRDPGHFLILLEQILQKTREVQEKGTYDLLTPLALLFYSTVLCTPHFPPDSDLLLKAASTYHRFLTWPVPYCSICQELLTFIDAELKAPGISYQRLVRAEQGLPIRSHRSSTVTVLLLNPVEVQAEFLAVANKLSTPGHSPHSAYTTLLLHAFQATFGAHCDVPGLHCRLQAKTLAELEDIFTETAEAQELASGIGDAAEARRWLRTKLQAVGEKAGFPGVLDTAKPGKLHTIPIPVARCYTYSWSQDSFDILQEILLKEQELLQPGILGDDEEEEEEEEEVEEDLETDGHCAERDSLLSTSSLASHDSTLSLASSQASGPALSRHLLTSFVSGLSDGMDSGYVEDSEESSSEWPWRRGSQERRGHRRPGQKFIRIYKLFKSTSQLVLRRDSRSLEGSSDTALPLRRAGSLCSPLDEPVSPPSRAQRSRSLPQPKLGTQLPSWLLAPASRPQRRRPFLSGDEDPKASTLRVVVFGSDRISGKVARAYSNLRRLENNRPLLTRFFKLQFFYVPVKRSHGTSPGACPPPRSQTPSPPTDSPRHASPGELGTTPWEESTNDISHYLGMLDPWYERNVLGLMHLPPEVLCQQSLKAEAQALEGSPTQLPILADMLLYYCRFAARPVLLQVYQTELTFITGEKTTEIFIHSLELGHSAATRAIKASGPGSKRLGIDGDREAVPLTLQIIYSKGAISGRSRWSNLEKVCTSVNLNKACRKQEELDSSMEALTLNLTEVVKRQNSKSKKGFNQISTSQIKVDKVQIIGSNSCPFAVCLDQDERKILQSVVRCEVSPCYKPEKSDLSSPPQTPPDLPAQAAPDLCSLLCLPIMTFSGALP

- binding result [3]: binds
B5: human p84 (regulatory subunit of PI3Kγ), co-expressed with human p110γ (natural protein)
chain: MESSDVELDLQRSVQAVLRELSTQAPALQSNQGMWRWSLHKKVERDPGKSPVLVRILLRELEKAESQDLRHVIIPLLHTVMYVLTKATGITEELYQRIYAFCTRLLTLPTPYCTVALDCAIRLKTEMAVPGTLYQRMVIAEQNLTNELYPYQERVFLFVDPELVSASVCSALLLEIEAAQAQQTPETCMRHVVSHALQAALGEACHAGALHRKLQASPRRTLEHYFHAVVAALEQMASEASPSREGHVERLEEIYCSLLGPAAGRCGGDLVQERPPSIPLPSPYITFHLWTGEEQLWKELVLFLRPRSQLRLSADLEVLDLQGLRPDRELARVSVLSTDSGIERDLPTGADELPAPGSPEMERAGLQRKGGIKKRAWPLDFLMPGSWDGPPGLHRRTGRPSGDGEMLPGVSRLHTARVLVLGDDRMLGRLAQAYHRLRKRETQKFCLTPRLSLQLYYIPVLAPEKPAASRQPELGELATFLGRVDPWYQSNVNTLCPAIHKLAEMPPSLDTSRTVDPFILDVITYYIRMGTQPIYFQIYTVKIFFSDLSQDPTEDIFLIELKVKIQDSKFPKDGFSPRRRGVAEGPGAELSLCYQKALLSHRPREVTVSLRATGLILKAIPASDTEVSGSSHCPLPAAPVTDHTCLNVNVTEVVKSSNLAGKSFSTVTNTFRTNNIQIQSRDQRLLTLSLDKDDQRTFRDVVRFEVAPCPEPCSGAQKSKAPWLNLHGQQEVEAIKAKPKPLLMPINTFSGIVQ
